Reference: US9315825B2, “Pharmacologically induced transgene ablation system” (The Trustees of the University of Pennsylvania, priority 2010, dated 2016)

B1: NLS-HTH-FokI: HTH-FokI fusion which further has a heterologous NLS at its N-terminus (protein)
chain: MPKKKRKVGRPPRLTKAEWEQAGRLLAQGIPRKQVALIYDVALSTLYKKHPAKRAHIENDDRINGTKQLVKSELEEKKSELRHKLKYVPHEYIELIEIARNPTQDRILEMKVMEFFMKVYGYRGEHLGGSRKPDGAIYTVGSPIDYGVIVDTKAYSGGYNLPIGQADEMQRYVEENQTRNKHINPNEWWKVYPSSVTEFKFLFVSGHFKGNYKAQLTRLNHITNCNGAVLSVEELLIGGEMIKAGTLTLEEVRRKFNNGEINF
modifications: modified enzyme from SV40, Gin and FokI
notes: HTH-FokI fusion which further has a heterologous NLS at its N-terminus
B2: HTH-FokI: HTH from Gin (a serine recombinase), a linker and FokI catalytic domain, SEQ ID NO: 6 (protein)
chain: MGRPPRLTKAEWEQAGRLLAQGIPRKQVALIYDVALSTLYKKHPAKRAHIENDDRINGTKQLVKSELEEKKSELRHKLKYVPHEYIELIEIARNPTQDRILEMKVMEFFMKVYGYRGEHLGGSRKPDGAIYTVGSPIDYGVIVDTKAYSGGYNLPIGQADEMQRYVEENQTRNKHINPNEWWKVYPSSVTEFKFLFVSGHFKGNYKAQLTRLNHITNCNGAVLSVEELLIGGEMIKAGTLTLEEVRRKFNNGEINF
B3: wild-type FokI: full-length FokI enzyme (SEQ ID NO: 12) expressed from a cotransfected codon optimized plasmid (protein)
chain: MFLSMVSKIRTFGWVQNPGKFENLKRVVQVFDRNSKVHNEVKNIKIPTLVKESKIQKELVAIMNQHDLIYTYKELVGTGTSIRSEAPCDAIIQATIADQGNKKGYIDNWSSDGFLRWAHALGFIEYINKSDSFVITDVGLAYSKSADGSAIEKEILIEAISSYPPAIRILTLLEDGQHLTKFDLGKNLGFSGESGFTSLPEGILLDTLANAMPKDKGEIRNNWEGSSDKYARMIGGWLDKLGLVKQGKKEFIIPTLGKPDNKEFISHAFKITGEGLKVLRRAKGSTKFTRVPKRVYWEMLATNLTDKEYVRTRRALILEILIKAGSLKIEQIQDNLKKLGFDEVIETIENDIKGLINTGIFIEIKGRFYQLKDHILQFVIPNRGVGTKQLVKSELEEKKSELRHKLKYVPHEYIELIEIARNPTQDRILEMKVMEFFMKVYGYRGEHLGGSRKPDGAIYTVGSPIDYGVIVDTKAYSGGYNLPIGQADEMQRYVEENQTRNKHINPNEWWKVYPSSVTEFKFLFVSGHFKGNYKAQLTRLNHITNCNGAVLSVEELLIGGEMIKAGTLTLEEVRRKFNNGEINF
B4: untethered FokI: FokI catalytic domain alone, 198 amino acids (SEQ ID NO: 14), un-tethered to DNA (protein)
chain: MKQLVKSELEEKKSELRHKLKYVPHEYIELIEIARNPTQDRILEMKVMEFFMKVYGYRGEHLGGSRKPDGAIYTVGSPIDYGVIVDTKAYSGGYNLPIGQADEMQRYVEENQTRNKHINPNEWWKVYPSSVTEFKFLFVSGHFKGNYKAQLTRLNHITNCNGAVLSVEELLIGGEMIKAGTLTLEEVRRKFNNGEINF
B5: FokI protein: FokI protein delivered (transfected) to the cells (protein, UniProt P14870 2-579, looked up)
Type II restriction enzyme …: VSKIRTFGWVQNPGKFENLKRVVQVFDRNSKVHNEVKNIKIPTLVKESKIQKELVAIMNQHDLIYTYKELVGTGTSIRSEAPCDAIIQATIADQGNKKGYIDNWSSDGFLRWAHALGFIEYINKSDSFVITDVGLAYSKSADGSAIEKEILIEAISSYPPAIRILTLLEDGQHLTKFDLGKNLGFSGESGFTSLPEGILLDTLANAMPKDKGEIRNNWEGSSDKYARMIGGWLDKLGLVKQGKKEFIIPTLGKPDNKEFISHAFKITGEGLKVLRRAKGSTKFTRVPKRVYWEMLATNLTDKEYVRTRRALILEILIKAGSLKIEQIQDNLKKLGFDEVIETIENDIKGLINTGIFIEIKGRFYQLKDHILQFVIPNRGVTKQLVKSELEEKKSELRHKLKYVPHEYIELIEIARNSTQDRILEMKVMEFFMKVYGYRGKHLGGSRKPDGAIYTVGSPIDYGVIVDTKAYSGGYNLPIGQADEMQRYVEENQTRNKHINPNEWWKVYPSSVTEFKFLFVSGHFKGNYKAQLTRLNHITNCNGAVLSVEELLIGGEMIKAGTLTLEEVRRKFNNGEINF

System: pCMV.Luciferase reporter gene expression in HEK293 cells
Assay: Ablation of luciferase reporter by FokI ablators co-transfected into HEK293 cells (Dual Luciferase assay)
Assay type: cell-based, human
Conditions: for ablation of Luc reporter with increasing concentration of ablator expression plasmid: 6.25, 12.5, 25, 50 and 100 ng expression plasmid cotransfected with 50 ng pCMV.Luciferase; for expression of the luciferase reporter gene: FIG. 18A: 50 ng pCMV.Luciferase + 200 ng pCMV.FokI, or + transfected FokI protein
Procedure: Open reading frames encoding for various endonucleases were codon optimized and de novo synthesized by GeneArt. Ablator expression and target plasmids were produced using standard molecular biological cloning techniques. Transfections were performed in HEK293 cells using Lipofectamine™ 2000 transfection reagent (Life Technologies). All transfections were performed using optimal transfection conditions as defined in transfection reagent protocol. Briefly, 200-250 ng plasmid DNA (excluding transfection control plasmid) was complexed with Lipofectamine™ 2000 transfection reagent and added to cells in 96 well plates. DNA quantities were consistent across all conditions by supplementation with an unrelated plasmid containing the same promoter as test plasmids. Transfection complexes were incubated with cells for 4-6 hours as transfection reagent protocol before the addition of FBS supplemented media. Transfected cells were incubated at 37° C. for 24-72 hours. Following incubation, cells were assayed for reporter gene expression using Promega Dual Luciferase detection kit according to the manufacturer's instructions on a BioTek Clarity platereader and renilla luciferase was used to control for transfection efficiency. All samples were performed in quadruplicate and standard errors of the mean were calculated.
The amino acid sequence of the FokI enzyme is provided in SEQ ID NO: 12, wherein amino acids 1 to 387 are the DNA binding domain and amino acids 387 to 584 are the catalytic domain. The codon optimized FokI sequence is provided in SEQ ID NO:1.
In a dose-dependent experiment, the FokI expression vector contained the FokI catalytic domain fused to a zinc finger DNA binding domain (ZFHD). This construct, which is 963 bp, is provided in SEQ ID NO: 21 and is composed of base pairs 1 to 366 bp ZFHD, 367 to 372 bp linker, and 373 to 963 bp FokI catalytic domain. The resulting expression product comprises amino acids 1 to 122 (ZFHD), amino acids 123-124 are a linker and amino acids 125 to 321 are from the FokI catalytic domain. […] No ablation sites were required to be engineered into the transcription unit containing the transgene in this illustration, as luciferase contains multiple native FokI sites.
The plasmid contructs in this example contains either the FokI catalytic domain (198 amino acids (SEQ ID NO: 14), corresponding to amino acids 387 to 584 of the full-length protein) (untethered FokI) or a ZFHD-Fokl catalytic domain of 963 bp as described in Part A above (tethered FokI). Even at the highest concentration, the catalytic domain of FokI which is un-tethered to DNA does have no effect on expression of Luc reporter gene (FIG. 19A).
The HTH-FokI Catalytic domain (SEQ ID NO:5), is composed of 1-171 bp HTH from Gin (a serine recombinase), a linker (bp 172-177), and a FokI catalytic domain (178-768 bp) derived from codon-optimized FokI. The resulting chimeric enzyme (SEQ ID NO: 6) contains aa 1-57 of HTH from Gin, a linker (aa 58-59), and a FokI catalytic domain (amino acids 60-256).

Molecule	ablation of Luc reporter with increasing concentration of ablator expression plasmid	expression of the luciferase reporter gene	further results
ZFHD-FokI: FokI catalytic domain fused to a zinc finger homeodomain DNA binding domain (ZFHD), 963 bp, SEQ ID NO: 21	dose dependent ablation		ablation of Luc reporter with increasing concentration of ablator expression plasmid (listed as ZF-HD-FokI): effectively ablated
B1			activity of HTH-FokI after adding heterologous NLS at the N-terminus (6.25-100 ng expression plasmid with 50 ng pCMV.Luciferase, separate experiment): further improved
B2	effectively ablated		
B3		effective ablated	
B4	no effect		
B5		partial ablation	
